Biological target: Crk (UniProt P46108)
Assay: anti-Flag co-IP, anti-HA blot
Conditions: reference: cells infected with noninvasive Shigella; sites Y421,Y466,Y482

cortactin (from UniProt Q60598) cells infected with invasive Shigella
fold change: stronger; reference 1
